Publication PMC7754472, “RPW8.1 enhances the ethylene‐signaling pathway to feedback‐attenuate its mediated cell death and disease resistance in Arabidopsis”
Substitutions are numbered along the chain they refer to.

Assays:
[1] = biological target: T1, GST-ORA59 (Arabidopsis thaliana, UniProt Q9LND1 1-244); assay: EMSA; Chemiluminescent EMSA kit (Beyotime) EMSA/Gel-Shift binding buffer; salt, pH and temperature not stated; conditions: protein: recombinant, tags: N-terminal GST (pGEX), blunt
[2] = biological target: T1, GST-ORA59; assay: competition; 5-, 25-, 50-fold excess vs biotin-OBS2; Chemiluminescent EMSA kit (Beyotime) EMSA/Gel-Shift binding buffer; salt, pH and temperature not stated; conditions: protein: recombinant; tags: N-terminal GST (pGEX); blunt
[3] = biological target: T1, GST-ORA59; assay: competition; 5-, 25-, 50-fold excess vs biotin-OBS1; Chemiluminescent EMSA kit (Beyotime) EMSA/Gel-Shift binding buffer; salt, pH and temperature not stated; conditions: protein: recombinant; tags: N-terminal GST (pGEX); blunt

T1 sequence (Q9LND1 whole entry): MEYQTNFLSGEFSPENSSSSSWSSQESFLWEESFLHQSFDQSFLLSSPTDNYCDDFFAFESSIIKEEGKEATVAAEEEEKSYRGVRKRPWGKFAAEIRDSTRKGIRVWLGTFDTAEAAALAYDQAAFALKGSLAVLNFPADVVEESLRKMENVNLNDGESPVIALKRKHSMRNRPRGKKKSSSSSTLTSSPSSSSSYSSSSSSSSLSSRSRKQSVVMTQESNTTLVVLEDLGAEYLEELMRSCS

B1: OBS5 (dsDNA)
DNA 1: ATGTACATAGATTCCTCTATATTCACCTCGAGAGCTAAACAACTACTTTCAAAAA
DNA 2: TTTTTGAAAGTAGTTGTTTAGCTCTCGAGGTGAATATAGAGGAATCTATGTACAT
[1]; label: 3' biotin
  binding result: binds

B2: OBS2 (dsDNA)
DNA 1: TTGCATATAGATCCAACGATCTCCTCTTACCTAGAAAAAGAGAGAGTTGTTGACCCGTA
DNA 2: TACGGGTCAACAACTCTCTCTTTTTCTAGGTAAGAGGAGATCGTTGGATCTATATGCAA
[1]; label: 3' biotin (probe)
  binding result: binds

B3: mutant competitor II (OBS2, GAG-motif mutant) (dsDNA)
DNA 1: B2 DNA 1 with G42C, G44C
DNA 2: B2 DNA 2 with C16G, C18G
[2]
  binding result: binds

B4: mutant competitor IV (OBS2, unnamed motif and TCT-motif mutant) (dsDNA)
DNA 1: B2 DNA 1 with C24G, T25A
DNA 2: B2 DNA 2 with A35T, G36C
[2]
  binding result: binds

B5: mutant competitor I (OBS2, T/A-rich motif mutant) (dsDNA)
DNA 1: B2 DNA 1 with T6G, T8C, A33C
DNA 2: B2 DNA 2 with T27G, A52G, A54C
[2]
  binding result: no binding

B6: mutant competitor III (OBS2, BOX-W1 mutant) (dsDNA)
DNA 1: B2 DNA 1 with T51A, G52C
DNA 2: B2 DNA 2 with C8G, A9T
[2]
  binding result: binds

B7: OBS3 (dsDNA)
DNA 1: TATGAGTCAATCTCTTGAATTGTCTTCATATAATTAAAACCACTCGTTAACTTGTTAA
DNA 2: TTAACAAGTTAACGAGTGGTTTTAATTATATGAAGACAATTCAAGAGATTGACTCATA
[1]; label: 3' biotin
  binding result: binds

B8: OBS1 (dsDNA)
DNA 1: ACGTAATTCAATAATATTCTACGTAATTTAATACTCACGACAACTTGCATAT
DNA 2: ATATGCAAGTTGTCGTGAGTATTAAATTACGTAGAATATTATTGAATTACGT
[1]; label: 3' biotin (probe)
  binding result: binds

B9: mutant competitor V (OBS1, T/A-rich motif mutant) (dsDNA)
DNA 1: B8 DNA 1 with T12G, T15G, T29C, T32G
DNA 2: B8 DNA 2 with A21C, A24G, A38C, A41C
[3]
  binding result: no binding

B10: OBS4 (dsDNA)
DNA 1: ACATAAAACTATTTAATATGGTTCCATCCTTCCATGTACATAGATTCCTCT
DNA 2: AGAGGAATCTATGTACATGGAAGGATGGAACCATATTAAATAGTTTTATGT
[1]; label: 3' biotin
  binding result: binds
